Test results published in patent US20220098256A1 (TOKUSHIMA UNIVERSITY, published 2022).
Each block holds one molecule with its values, some of them ahead of it. Positions of bridges follow the written chain, without caps; N, C: chain ends. Non-standard residues stand in square brackets, D forms with d. No end group written: not given here. Nle = CCCC[C@H](N)C(=O)O

Experiments:
[1] = molecular target: brefeldin A-inhibited guanine nucleotide-exchange protein 3 (BIG3) (human) (UniProt Q5TH69); assay: cell-based or functional assay
[2] = molecular target: brefeldin A-inhibited guanine nucleotide-exchange protein 3 (BIG3) (human) (UniProt Q5TH69); assay: co-immunoprecipitation with anti-BIG3 antibody from peptide-treated MCF-7 cells, PHB2 immunoblot, band area against untreated cells; 50 µM peptide
[3] = molecular target: brefeldin A-inhibited guanine nucleotide-exchange protein 3 (BIG3) (human) (UniProt Q5TH69); assay: co-immunoprecipitation from peptide-treated MCF-7 cells, Western blotting; 10 µM each peptide
[4] = molecular target: brefeldin A-inhibited guanine nucleotide-exchange protein 3 (BIG3) (human) (UniProt Q5TH69); assay: co-immunoprecipitation with anti-BIG3 antibody from peptide-treated MCF-7 cells, PHB2 immunoblot, band area against untreated cells; 50 µM each peptide
[5] = molecular target: brefeldin A-inhibited guanine nucleotide-exchange protein 3 (BIG3) (human, UniProt Q5TH69 1-2177); assay: cell-based or functional assay
brefeldin A-inhibited guanine nucleotide-exchange protein 3 (BIG3), sequence (Q5TH69 whole entry): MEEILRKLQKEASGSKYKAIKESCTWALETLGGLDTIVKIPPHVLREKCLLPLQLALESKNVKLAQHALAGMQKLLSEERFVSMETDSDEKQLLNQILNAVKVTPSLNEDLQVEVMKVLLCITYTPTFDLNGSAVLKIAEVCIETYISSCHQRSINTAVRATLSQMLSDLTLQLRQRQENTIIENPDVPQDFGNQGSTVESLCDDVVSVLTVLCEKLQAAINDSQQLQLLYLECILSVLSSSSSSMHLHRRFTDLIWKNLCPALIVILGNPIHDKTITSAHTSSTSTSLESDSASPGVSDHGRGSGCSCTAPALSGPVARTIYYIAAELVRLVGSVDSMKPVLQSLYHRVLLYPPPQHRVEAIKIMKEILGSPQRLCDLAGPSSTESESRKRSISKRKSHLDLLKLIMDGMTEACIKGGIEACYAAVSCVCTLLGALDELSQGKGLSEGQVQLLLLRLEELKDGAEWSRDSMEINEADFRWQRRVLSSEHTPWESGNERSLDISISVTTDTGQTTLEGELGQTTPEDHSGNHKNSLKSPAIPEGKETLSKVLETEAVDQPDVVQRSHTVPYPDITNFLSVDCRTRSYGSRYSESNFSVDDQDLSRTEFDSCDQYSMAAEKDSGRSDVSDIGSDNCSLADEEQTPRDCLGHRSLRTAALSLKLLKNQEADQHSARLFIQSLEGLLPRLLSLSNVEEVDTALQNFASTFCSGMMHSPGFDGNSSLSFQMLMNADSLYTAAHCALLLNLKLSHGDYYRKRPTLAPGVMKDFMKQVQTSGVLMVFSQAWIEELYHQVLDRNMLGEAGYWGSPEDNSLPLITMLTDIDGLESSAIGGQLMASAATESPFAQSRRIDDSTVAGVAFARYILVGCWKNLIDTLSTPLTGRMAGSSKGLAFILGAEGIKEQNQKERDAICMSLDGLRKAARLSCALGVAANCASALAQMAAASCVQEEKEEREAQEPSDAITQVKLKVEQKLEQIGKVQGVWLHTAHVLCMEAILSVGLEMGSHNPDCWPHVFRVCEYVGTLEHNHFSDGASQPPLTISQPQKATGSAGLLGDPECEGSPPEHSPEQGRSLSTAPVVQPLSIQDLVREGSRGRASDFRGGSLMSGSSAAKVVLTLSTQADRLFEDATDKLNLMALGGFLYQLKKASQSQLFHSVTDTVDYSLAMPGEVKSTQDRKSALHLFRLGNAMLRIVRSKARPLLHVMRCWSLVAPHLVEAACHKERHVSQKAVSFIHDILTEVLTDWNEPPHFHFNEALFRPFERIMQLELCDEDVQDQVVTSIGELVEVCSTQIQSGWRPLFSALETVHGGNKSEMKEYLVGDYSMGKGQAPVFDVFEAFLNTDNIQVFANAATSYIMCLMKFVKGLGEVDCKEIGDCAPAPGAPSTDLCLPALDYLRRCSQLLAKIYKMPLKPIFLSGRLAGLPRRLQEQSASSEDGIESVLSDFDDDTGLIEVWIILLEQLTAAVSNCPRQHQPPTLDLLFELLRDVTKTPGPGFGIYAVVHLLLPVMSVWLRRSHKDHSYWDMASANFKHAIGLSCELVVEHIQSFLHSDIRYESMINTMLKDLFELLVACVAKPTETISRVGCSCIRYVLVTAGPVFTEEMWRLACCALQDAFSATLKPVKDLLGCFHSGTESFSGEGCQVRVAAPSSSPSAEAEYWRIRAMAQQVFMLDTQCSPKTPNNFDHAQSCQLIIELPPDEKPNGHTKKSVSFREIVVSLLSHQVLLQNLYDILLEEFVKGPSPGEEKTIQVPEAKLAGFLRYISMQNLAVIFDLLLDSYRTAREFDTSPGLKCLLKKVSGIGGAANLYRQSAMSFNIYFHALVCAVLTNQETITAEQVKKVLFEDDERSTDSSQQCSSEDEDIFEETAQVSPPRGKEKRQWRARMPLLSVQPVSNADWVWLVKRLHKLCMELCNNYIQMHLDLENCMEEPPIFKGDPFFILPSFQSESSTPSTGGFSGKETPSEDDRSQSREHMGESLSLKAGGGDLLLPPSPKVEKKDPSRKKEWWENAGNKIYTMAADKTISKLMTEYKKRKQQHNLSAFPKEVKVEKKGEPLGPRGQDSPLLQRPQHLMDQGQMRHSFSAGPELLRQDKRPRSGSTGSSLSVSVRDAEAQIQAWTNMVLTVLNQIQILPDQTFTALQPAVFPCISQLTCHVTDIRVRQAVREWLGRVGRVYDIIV

brefeldin A-inhibited guanine nucleotide-exchange protein 3 (BIG3) (human), sequence (Q5TH69 whole entry): as above

Ser39 phosphorylation of PHB2, band intensity compared to ERAP treatment [1]: 70%
growth suppressive effect on E2-dependent growth of MCF-7 [1]: 88%
suppression of E2-dependent growth of MCF-7, 10 µM each [1]: 100%
suppression of growth of MDA-MB-231, both peptides at their IC50, 96 h [1]: 62%
inhibition ratio of the interaction between BIG3 and PHB2 [3]: 67%
inhibition ratio of the binding between BIG3 and PHB2 [4]: 87%
Molecule: combination of PHB2 peptides No. 1 (11-22aa) and No. 5 (76-90aa)

suppression of E2-dependent growth of MCF-7, 4 µM cyclic 11-21aa and 2 µM cyclic 76-88aa, 24 hours [1]: 82%
suppression ratio of E2-dependent growth of MCF-7, 4 µM cyclic 11-21aa and 2 µM cyclic 76-88aa, up to 96 hours [1]: 88%
suppression ratio of E2-dependent growth of MCF-7, 10 µM each, 24 h [1]: 96%
inhibition ratio of the interaction between BIG3 and PHB2 [3]: 81%
Molecule: combination of cyclic PHB2 peptides 11-21aa and 76-88aa

suppression ratio of estrogen-dependent growth of MCF-7, 10 µM, 24 h [5]: 19%
Molecule: RLPAAPRGMGTA (not fully specified (C-terminus)) [alanine-mutated PHB2 peptide No. 59]

suppression ratio of estrogen-dependent growth of MCF-7, 10 µM, 24 h [5]: 8%
Molecule: RLPAGPRAMGTA (not fully specified (C-terminus)) [alanine-mutated PHB2 peptide No. 62]

suppression ratio of estrogen-dependent growth of MCF-7, 10 µM, 24 h [5]: 37%
Molecule: QYPIIADIRARPRKI (not fully specified (C-terminus)) [alanine-mutated PHB2 peptide No. 72]

suppression ratio of estrogen-dependent growth of MCF-7, 10 µM, 24 h [5]: 59%
Molecule: EGGHRAIFFNRIGG (not fully specified (C-terminus)) [PHB2 sequence-derived peptide No. 82]

suppression ratio of E2-dependent growth of MCF-7, in combination with 10 µM No. 5 (76-90aa) [5]: ≥ 90%
Molecule: GPRGMGTALKLL (not fully specified (C-terminus)) [PHB2 sequence-derived peptide No. 40]

suppression ratio of estrogen-dependent growth of MCF-7, 10 µM, 24 h [5]: 61%
Molecule: ESVFTVEGGHRAIFFNRIGG (not fully specified (C-terminus)) [PHB2 sequence-derived peptide No. 83]

suppression ratio of estrogen-dependent growth of MCF-7, 10 µM, 24 h [5]: 38%
Molecule: QYPIAYDIRARPRKI (not fully specified (C-terminus)) [alanine-mutated PHB2 peptide No. 71]

IC50 for E2-dependent growth of MCF-7 [5]: 2110 nM
suppression ratio of E2-dependent growth of MCF-7, 2 µM, up to 96 hours [5]: 59%
suppression ratio of E2-dependent growth of MCF-7, 10 µM, 24-hour treatment [5]: 58%
suppression ratio of E2-dependent growth of MCF-7, 10 µM, after 96 hours [5]: 72%
B2: cyclic PHB2 peptide 76-88aa (peptide)
peptide: CQYPIIYDIRARPRCF[Nal]RRRR
modifications: disulfide 1-15 (inferred); not fully specified; also: X17: an unnatural amino acid, amide bond between the added C-terminal and N-terminal residues (cyclic)

suppression ratio of estrogen-dependent growth of MCF-7, 10 µM, 24 h [5]: 13%
Molecule: QYPIIYAIRARPRKI (not fully specified (C-terminus)) [alanine-mutated PHB2 peptide No. 73]

IC50 for E2-dependent growth of MCF-7 [5]: 4060 nM
suppression ratio of E2-dependent growth of MCF-7, 4 µM, up to 96 hours [5]: 41%
suppression ratio of E2-dependent growth of MCF-7, 10 µM, 24-hour treatment [5]: 53%
suppression ratio of E2-dependent growth of MCF-7, 10 µM, after 96 hours [5]: 67%
B3: cyclic PHB2 peptide 11-21aa (peptide)
peptide: CRLPAGPRG[Nle]GTCF[Nal]RRRR
modifications: disulfide 1-13; not fully specified; also: amide bond between the added C-terminal and N-terminal residues (cyclic)

The next lines start with the molecule.

Molecule: PHB2 sequence-derived peptide No. 5 (76-90aa)
IC50 against growth of triple-negative breast cancer cell line MDA-MB-231, 96 h [1]: 273 nM
Ser39 phosphorylation of PHB2, band intensity compared to ERAP treatment [1]: 20%
suppression of growth of MDA-MB-231, peptide alone at its IC50, 96 h [1]: 50%
suppression ratio of E2-dependent growth of MCF-7, 10 µM, 24 h [1]: 51%
suppression ratio of E2-dependent growth of MCF-7, peptide alone [1]: 55%
suppression ratio of estrogen (E2)-dependent growth of MCF-7, 10 µM, 24 h [1]: 49%
suppression ratio of estrogen-dependent growth of MCF-7, 10 µM, 24 h [1]: 54%
inhibition ratio of the binding between BIG3 and PHB2 [2]: 80%

Molecule: PHB2 sequence-derived peptide No. 1 (11-22aa)
IC50 against growth of triple-negative breast cancer cell line MDA-MB-231, 96 h [1]: 462 nM
Ser39 phosphorylation of PHB2, band intensity compared to ERAP treatment [1]: 40%
suppression of estrogen-dependent growth of MCF-7, 10 µM, 24 h [1]: 65%
suppression of growth of MDA-MB-231, peptide alone at its IC50, 96 h [1]: 50%
suppression ratio of E2-dependent growth of MCF-7, 10 µM, 24 h [1]: 63%
suppression ratio of E2-dependent growth of MCF-7, peptide alone [1]: 65%
suppression ratio of estrogen (E2)-dependent growth of MCF-7, 10 µM, 24 h [1]: 58%
inhibition ratio of the binding between BIG3 and PHB2 [2]: 64%

Molecule: RLPA[dL]PR[dL]MGTARRRRRRRR (not fully specified (C-terminus)) [PHB2 peptide 11-22aa with glycines at positions 15 and 18 substituted with D-leucines]
suppression ratio of estrogen-dependent growth of MCF-7 [5]: ~65%

B1: PHB2 peptide 11-90aa (peptide)
peptide: RLPAGPRGMGTALKLLLGAGAVAYGVRESVFTVEGGHRAIFFNRIGGVQQDTILAEGLHFRIPWFQYPIIYDIRARPRKI
Ser39 phosphorylation of PHB2, relative to ERAP treatment [5]: 30%
suppression ratio of E2-dependent growth of MCF-7, 24 h, 50 µM [5]: 57%

Molecule: TVEGGHRAIRRRRRRRR-NH2 [PHB2 sequence-derived peptide No. 2 (42-50aa)]
suppression ratio of estrogen-dependent growth of MCF-7, 10 µM, 24 h [5]: 20%

Molecule: LKDLAGRLPAGP (not fully specified (C-terminus)) [PHB2 sequence-derived peptide No. 36]
suppression ratio of E2-dependent growth of MCF-7, in combination with 10 µM No. 5 (76-90aa) [5]: ≥ 90%

Molecule: DLAGRLPAGPRG (not fully specified (C-terminus)) [PHB2 sequence-derived peptide No. 37]
suppression ratio of E2-dependent growth of MCF-7, in combination with 10 µM No. 5 (76-90aa) [5]: ≥ 90%

Molecule: AGRLPAGPRGMG (not fully specified (C-terminus)) [PHB2 sequence-derived peptide No. 38]
suppression ratio of E2-dependent growth of MCF-7, in combination with 10 µM No. 5 (76-90aa) [5]: ≥ 90%

Molecule: ESVFTVEGGHRAIRRRRRRRR-NH2 [PHB2 sequence-derived peptide No. 3 (38-50aa)]
suppression ratio of estrogen-dependent growth of MCF-7, 10 µM, 24 h [5]: 17%

Molecule: PAGPRGMGTALK (not fully specified (C-terminus)) [PHB2 sequence-derived peptide No. 39]
suppression ratio of E2-dependent growth of MCF-7, in combination with 10 µM No. 5 (76-90aa) [5]: ≥ 90%

Molecule: RPRKISSPTGSKDLQRRRRRRRR-NH2 [PHB2 sequence-derived peptide No. 6 (86-100aa)]
suppression ratio of E2-dependent growth of MCF-7, peptide alone [5]: ~10%
